# Experimental data as given in patent KR20130126534A.
# Target: TNF-α
# Test: ELISA, TNF-α coated 100 ng/well, protein titrated from 100 nM, anti-Human Fc-HRP
substance,measurement,value
TNFR2 (단독) (from UniProt P20333 23-252) (Fc fusion),Kd,0.068 nM
